These results are taken from patent US20060078911, “Oxidative DNA damage protection” (published 2006).

Series [1] deals with PC4 (full length wild type) (Homo sapiens, UniProt P53999 SEQ:1-127). As to the kind of experiment: EMSA; complete binding at 352 nM PC4 without XPG; second shifted band at 704 nM; 2.5 nM DNA, 110 mM KCl, 1 mM EDTA, poly(dI-dC), pH 7.5, room temp; with XPG (41 nM) present complete binding at 44 nM. Particulars: tags: expressed in E. coli BL21(DE3); chain copies: 2 (inferred); label: 5'-32P on 10T-strand; duplex with central 10-nt unpaired bubble. Here is the method: (§1) 2.5 nM of the 10-nt bubble DNA substrate was incubated with 41 nM of purified XPG (lanes 2-7) or without XPG (lanes 9-13). Reaction mixtures were supplemented with 44 nM (lanes 3 and 9), 88 nM (lanes 4 and 10), 176 nM (lanes 5 and 11), 352 nM (lanes 6 and 12) and 704 nM (lanes 7 and 13) of human PC4 protein, respectively. Samples were loaded onto a 4.5% native gel and electrophoresis was conducted at 150 V for 2 hours at 4° C. The gel was dried and exposed on a phosphorimager screen. No protein was added in lanes 1 and 8.
(§2) The 10T-strand was 5′-end labeled with T4 polynucleotide kinase and [γ-³²P]ATP and annealed with the complementary 10C-strand by heating for 3 minutes at 90° C. and cooled to room temperature. […] The gels were visualized by phosphorimager and analyzed using ImageQuant™ software (Molecular Dynamics).
(§3) To determine if XPG affects PC4 interaction with DNA bubbles, we pre-incubated the 10 bp bubble DNA with XPG and then added PC4 at varying concentrations (FIG. 9A, lanes 3-7). XPG strongly stimulated PC4 binding, with complete binding achieved at the lowest PC4 protein concentration analyzed (44 nM, lane 3) as compared to 352 nM in the absence of XPG Correspondingly, the tetramer-bound complex appears at lower concentrations (352 nM, lane 6) in the presence of XPG In no case did we observe a trimeric complex of XPG, PC4, and DNA. […]
A general note: In EMSA bound probe runs differently from free probe, usually more slowly.

In a further series the target is T1, XPG (Homo sapiens, UniProt P28715 P28715:1-1186).
T1 sequence: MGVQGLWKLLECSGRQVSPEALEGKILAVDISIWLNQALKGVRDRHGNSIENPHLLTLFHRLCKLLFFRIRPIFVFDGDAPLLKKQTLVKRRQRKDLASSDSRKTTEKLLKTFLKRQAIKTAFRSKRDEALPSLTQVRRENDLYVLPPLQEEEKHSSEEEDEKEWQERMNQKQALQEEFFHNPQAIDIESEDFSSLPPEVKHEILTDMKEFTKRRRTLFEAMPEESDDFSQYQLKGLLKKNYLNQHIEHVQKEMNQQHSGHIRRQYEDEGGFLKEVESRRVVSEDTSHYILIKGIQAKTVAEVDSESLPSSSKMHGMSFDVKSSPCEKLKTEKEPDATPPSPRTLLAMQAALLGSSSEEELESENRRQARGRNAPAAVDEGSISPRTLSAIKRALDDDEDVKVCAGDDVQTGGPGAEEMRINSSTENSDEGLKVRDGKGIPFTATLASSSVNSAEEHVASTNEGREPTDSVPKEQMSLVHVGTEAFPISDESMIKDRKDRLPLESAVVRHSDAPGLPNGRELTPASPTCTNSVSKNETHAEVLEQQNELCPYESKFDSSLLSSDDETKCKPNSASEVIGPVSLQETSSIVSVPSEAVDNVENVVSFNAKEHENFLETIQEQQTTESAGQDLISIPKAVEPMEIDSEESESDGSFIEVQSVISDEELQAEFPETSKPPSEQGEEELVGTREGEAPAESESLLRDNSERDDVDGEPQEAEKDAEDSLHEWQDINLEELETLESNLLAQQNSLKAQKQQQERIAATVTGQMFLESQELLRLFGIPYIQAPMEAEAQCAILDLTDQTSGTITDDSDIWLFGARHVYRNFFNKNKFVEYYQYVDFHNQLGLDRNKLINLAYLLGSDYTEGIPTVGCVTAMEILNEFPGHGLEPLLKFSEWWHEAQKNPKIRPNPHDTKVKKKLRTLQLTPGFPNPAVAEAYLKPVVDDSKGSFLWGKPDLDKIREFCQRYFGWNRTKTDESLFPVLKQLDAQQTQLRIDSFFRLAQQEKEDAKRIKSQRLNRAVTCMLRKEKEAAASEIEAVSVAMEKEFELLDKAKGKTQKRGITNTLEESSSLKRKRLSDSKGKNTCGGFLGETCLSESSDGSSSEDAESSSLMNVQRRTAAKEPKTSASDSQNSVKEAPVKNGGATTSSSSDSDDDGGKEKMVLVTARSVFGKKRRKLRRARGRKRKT
As to the kind of experiment: EMSA; 41 nM XPG gives slowly migrating complex; displaced by PC4; 110 mM KCl, 1 mM EDTA, pH 7.5, room temp. The settings on record: tags: expressed in High5 insect cells (pFASTBAC); label: 5'-32P on 10T-strand; duplex with central 10-nt unpaired bubble. The protocol: as §1, §2, §3

B1: 10-nt bubble DNA (10T/10C) (structured_DNA)
DNA 1: GGGCAGACAACGTGGCGCTGTTTTTTTTTTGTGTCCTAGCACAGCGTATG
DNA 2: CATACGCTGTGCTAGGACACCCCCCCCCCCCAGCGCCACGTTGTCTGCCC
B1: the binding result (in series [1]; with XPG) was “binds” throughout.
